Values quoted from earlier work, collected in paper PMC13042399.

Biological target: IGF2 (Homo sapiens) (UniProt P01344)
Sequence (P01344 25-91): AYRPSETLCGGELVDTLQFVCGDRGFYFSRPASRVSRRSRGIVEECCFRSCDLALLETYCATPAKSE

Kd: 40 nM
Substance: IGF2R (from UniProt P11717)
